From publication doi:10.1101/2024.11.05.622117 (bioRxiv, 2024) come the findings set out here.

The data set deals with the molecule itself.

Take IRIDIRIDIRG [Peptide IRIDIRIDIRG (SID)]: the binding result is recorded as “binds”.
